Measurements from US20230399385A1.

Molecular target: SARS-CoV-2 spike (S) glycoprotein, wild-type, on pseudotyped virus (SARS-CoV-2) (UniProt P0DTC2)
Assay: cell-based or functional assay

Chain of JS016 (antibody) (VH): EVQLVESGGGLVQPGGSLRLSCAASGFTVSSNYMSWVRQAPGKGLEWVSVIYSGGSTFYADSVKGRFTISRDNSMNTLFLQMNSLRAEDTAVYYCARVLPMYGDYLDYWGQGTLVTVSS
Chain of JS016 (antibody) (VL): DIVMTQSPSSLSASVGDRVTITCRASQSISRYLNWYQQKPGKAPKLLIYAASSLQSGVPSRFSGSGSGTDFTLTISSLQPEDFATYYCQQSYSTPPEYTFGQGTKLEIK

Question: For JS016 (antibody), which IC50, pseudovirus neutralization study against wild-type SARS-CoV-2 is on record?
Answer: Its IC50, pseudovirus neutralization study against wild-type SARS-CoV-2 is 0.0631 µg/mL.
